Reference: US20180265573A1

Target: hemagglutinin of influenza A virus A/New Caledonia/20/99 (H1) (influenza A virus A/New Caledonia/20/99 (H1))

B1: monoclonal antibody GG3 (antibody, V domains shown)
VH: QIQLVQSGPELKKPGETVKISCKASGYTFTNYGMNWVKQAPGKGLKWMGWINIYSGESTYVDDFTGRFAFSLETSASTAYLQINNLKNEDMATYFCARSGDTMITAGRSFFAMDYWGQGTSVTVSS
VL: DIQMTQSPSSLSASLGERVSLTCRASQEISGYLSWLQQKPDGTIKRLIYAASTLDSGVPKRFSGSRSGSDYSLSISSLESEDFADYYCLQYANYPWSFGGGTKLEIK
- IC50 (read off the curve), plaque reduction neutralization assay: 6 µg/mL
